In PMC12753876, “The CRY1-HsF predicted interaction interface serves as a molecular platform for bioengineering or selecting modulating mutants” (Frontiers in Plant Science, 2025):
Blank lines part the entries; values can stand above or below the binder they belong to.

How the values were obtained:
Assay in all cases: two-hybrid; CRY1 as prey in pGADT7 (AD), HsF as bait in pGBKT7 (BD), co-transformed into yeast Y187; liquid beta-galactosidase assay with CPRG, Miller units; not detected (ND) if OD578 <0.01 after 3 h of color development
Conditions in all cases: partners not purified
[1] = molecular target: T1, HsFC1^R129E in pGBKT7 (BD) (Arabidopsis thaliana, UniProt Q9LV52 1-330, R129E)
T1 construct: source: yeast two-hybrid fusion (yeast Y187)
T1 sequence (Q9LV52 whole entry R129E, the tested form may be a part): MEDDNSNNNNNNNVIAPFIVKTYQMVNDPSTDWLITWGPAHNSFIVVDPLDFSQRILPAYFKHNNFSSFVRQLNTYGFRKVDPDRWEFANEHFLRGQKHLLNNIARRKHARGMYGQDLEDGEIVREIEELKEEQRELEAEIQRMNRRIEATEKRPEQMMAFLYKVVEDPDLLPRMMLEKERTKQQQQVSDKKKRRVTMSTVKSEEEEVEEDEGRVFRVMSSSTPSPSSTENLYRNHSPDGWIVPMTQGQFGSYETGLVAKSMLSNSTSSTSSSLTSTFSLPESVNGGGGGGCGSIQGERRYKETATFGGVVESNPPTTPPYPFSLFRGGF

[2] = molecular target: T2, HsFA3^K174A in pGBKT7 (BD) (Arabidopsis thaliana, UniProt Q8GYY1 1-412, K174A)
T2 construct: source: yeast two-hybrid fusion (yeast Y187)
T2 sequence (Q8GYY1 whole entry K174A, the tested form may be a part): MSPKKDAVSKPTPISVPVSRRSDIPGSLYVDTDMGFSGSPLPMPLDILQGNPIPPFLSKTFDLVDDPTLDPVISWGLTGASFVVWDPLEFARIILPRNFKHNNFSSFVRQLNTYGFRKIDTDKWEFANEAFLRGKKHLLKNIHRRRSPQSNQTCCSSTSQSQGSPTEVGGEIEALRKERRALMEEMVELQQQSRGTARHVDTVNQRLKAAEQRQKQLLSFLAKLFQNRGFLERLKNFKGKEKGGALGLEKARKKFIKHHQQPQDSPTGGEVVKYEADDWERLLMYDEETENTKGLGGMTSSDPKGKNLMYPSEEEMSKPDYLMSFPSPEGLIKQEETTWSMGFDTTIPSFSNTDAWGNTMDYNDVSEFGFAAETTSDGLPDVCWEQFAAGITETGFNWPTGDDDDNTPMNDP

[3] = molecular target: T3, HsFA3^E188A in pGBKT7 (BD) (Arabidopsis thaliana, UniProt Q8GYY1 1-412, E188A)
T3 construct: Not in the list of plasmids of the methods; source: yeast two-hybrid fusion (yeast Y187)
T3 sequence (Q8GYY1 whole entry E188A, the tested form may be a part): as the sequence (Q8GYY1 whole entry K174A, the tested form may be a part) above, with A174K, E188A counted along it

HsFA6b^WT in pGBKT7 (BD) = molecular target: T4, HsFA6b^WT in pGBKT7 (BD) (Arabidopsis thaliana, UniProt Q9LUH8 1-406)
T4 construct: source: yeast two-hybrid fusion (yeast Y187)
T4 sequence (Q9LUH8 whole entry, the tested form may be a part): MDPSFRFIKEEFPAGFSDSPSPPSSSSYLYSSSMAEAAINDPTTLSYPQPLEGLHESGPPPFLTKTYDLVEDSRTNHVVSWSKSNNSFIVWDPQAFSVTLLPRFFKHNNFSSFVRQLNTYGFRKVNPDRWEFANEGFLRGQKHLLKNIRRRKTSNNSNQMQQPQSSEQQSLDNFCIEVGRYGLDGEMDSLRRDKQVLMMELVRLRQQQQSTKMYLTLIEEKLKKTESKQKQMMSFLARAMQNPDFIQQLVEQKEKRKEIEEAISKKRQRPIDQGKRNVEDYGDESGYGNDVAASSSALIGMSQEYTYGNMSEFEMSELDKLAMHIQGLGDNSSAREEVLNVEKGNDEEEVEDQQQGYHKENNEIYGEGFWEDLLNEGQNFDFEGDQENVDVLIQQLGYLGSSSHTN

[4] = molecular target: T5, HsFA3^K177A in pGBKT7 (BD) (Arabidopsis thaliana, UniProt Q8GYY1 1-412, K177A)
T5 construct: source: yeast two-hybrid fusion (yeast Y187)
T5 sequence (Q8GYY1 whole entry K177A, the tested form may be a part): as the sequence (Q8GYY1 whole entry K174A, the tested form may be a part) above, with A174K, K177A counted along it

HsFA6a^WT in pGBKT7 (BD) = molecular target: T6, HsFA6a^WT in pGBKT7 (BD) (Arabidopsis thaliana, UniProt Q1PDN3 1-282)
T6 construct: source: yeast two-hybrid fusion (yeast Y187)
T6 sequence (looked up): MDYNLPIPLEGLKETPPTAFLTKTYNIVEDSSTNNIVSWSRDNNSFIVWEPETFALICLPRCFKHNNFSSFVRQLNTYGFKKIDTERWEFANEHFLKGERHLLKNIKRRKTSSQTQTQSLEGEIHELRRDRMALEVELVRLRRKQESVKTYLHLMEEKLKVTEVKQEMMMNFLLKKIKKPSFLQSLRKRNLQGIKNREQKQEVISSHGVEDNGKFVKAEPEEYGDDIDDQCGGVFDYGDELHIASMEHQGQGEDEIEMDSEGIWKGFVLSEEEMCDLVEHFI

HsFA7a in pGBKT7 (BD) = molecular target: T7, HsFA7a in pGBKT7 (BD) (Arabidopsis thaliana, UniProt Q9SV12 1-272)
T7 construct: also called HsFA7^WT; source: yeast two-hybrid fusion (yeast Y187)
T7 sequence (Q9SV12 whole entry, the tested form may be a part): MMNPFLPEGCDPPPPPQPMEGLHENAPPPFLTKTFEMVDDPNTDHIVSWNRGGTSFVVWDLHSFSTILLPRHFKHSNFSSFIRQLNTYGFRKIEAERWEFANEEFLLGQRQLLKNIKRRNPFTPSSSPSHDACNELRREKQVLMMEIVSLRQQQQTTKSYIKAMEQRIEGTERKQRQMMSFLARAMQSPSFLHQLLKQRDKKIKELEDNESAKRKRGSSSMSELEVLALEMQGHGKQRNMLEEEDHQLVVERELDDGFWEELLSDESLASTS

[5] = molecular target: T8, HsFA3^E173A in pGBKT7 (BD) (Arabidopsis thaliana, UniProt Q8GYY1 1-412, E173A)
T8 construct: source: yeast two-hybrid fusion (yeast Y187)
T8 sequence (Q8GYY1 whole entry E173A, the tested form may be a part): as the sequence (Q8GYY1 whole entry K174A, the tested form may be a part) above, with E173A, A174K counted along it

[6] = molecular target: T9, HsFA3^E178A in pGBKT7 (BD) (Arabidopsis thaliana, UniProt Q8GYY1 1-412, E178A)
T9 construct: source: yeast two-hybrid fusion (yeast Y187)
T9 sequence (Q8GYY1 whole entry E178A, the tested form may be a part): as the sequence (Q8GYY1 whole entry K174A, the tested form may be a part) above, with A174K, E178A counted along it

HsFC1^WT in pGBKT7 (BD) = molecular target: T10, HsFC1^WT in pGBKT7 (BD) (Arabidopsis thaliana, UniProt Q9LV52 1-330)
T10 construct: source: yeast two-hybrid fusion (yeast Y187)
T10 sequence (Q9LV52 whole entry, the tested form may be a part): as the sequence (Q9LV52 whole entry R129E, the tested form may be a part) above, with E129R counted along it

HsFA3^WT in pGBKT7 (BD) = molecular target: T11, HsFA3^WT in pGBKT7 (BD) (Arabidopsis thaliana, UniProt Q8GYY1 1-412)
T11 construct: also called AtHsFA3; source: yeast two-hybrid fusion (yeast Y187)
T11 sequence (Q8GYY1 whole entry, the tested form may be a part): as the sequence (Q8GYY1 whole entry K174A, the tested form may be a part) above, with A174K counted along it

HsFA1d^WT in pGBKT7 (BD) = molecular target: T12, HsFA1d^WT in pGBKT7 (BD) (Arabidopsis thaliana, UniProt Q9LQM7 1-485)
T12 construct: source: yeast two-hybrid fusion (yeast Y187)
T12 sequence (Q9LQM7 whole entry, the tested form may be a part): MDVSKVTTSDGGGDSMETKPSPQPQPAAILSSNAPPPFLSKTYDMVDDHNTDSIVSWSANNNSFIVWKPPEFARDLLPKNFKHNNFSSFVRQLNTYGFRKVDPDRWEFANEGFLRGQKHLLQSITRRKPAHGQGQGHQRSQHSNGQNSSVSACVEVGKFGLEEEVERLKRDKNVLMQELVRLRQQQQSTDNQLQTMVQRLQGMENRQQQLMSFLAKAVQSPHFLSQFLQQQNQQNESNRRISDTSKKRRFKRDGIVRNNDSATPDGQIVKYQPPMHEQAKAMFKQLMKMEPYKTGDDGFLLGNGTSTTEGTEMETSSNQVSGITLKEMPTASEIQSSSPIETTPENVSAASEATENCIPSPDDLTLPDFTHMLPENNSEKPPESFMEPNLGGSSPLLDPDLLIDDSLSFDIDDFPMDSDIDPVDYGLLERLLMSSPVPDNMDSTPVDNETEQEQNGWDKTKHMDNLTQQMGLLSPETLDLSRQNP

- fold increase of Y2H interaction relative to WT [1]: ~10 fold
- decrease of Y2H interaction relative to WT [2]: 64%
- decrease of Y2H interaction relative to WT [3]: 61%
- beta-galactosidase activity (Miller units) (HsFA6b^WT in pGBKT7 (BD)): 45 Miller units
- decrease of Y2H interaction relative to WT [4]: 62%
- beta-galactosidase activity (Miller units) (HsFA6a^WT in pGBKT7 (BD)): < 0.5 Miller units
- beta-galactosidase activity (Miller units) (HsFA7a in pGBKT7 (BD)): 25 Miller units
- decrease of Y2H interaction relative to WT [5]: 29%
- fold change of Miller units relative to WT [6]: 2 fold
- beta-galactosidase activity (Miller units) (HsFC1^WT in pGBKT7 (BD)): < 0.5 Miller units
- beta-galactosidase activity (Miller units) (HsFA3^WT in pGBKT7 (BD)): 250 Miller units
- beta-galactosidase activity (Miller units) (HsFA1d^WT in pGBKT7 (BD)): 7 Miller units
B1: CRY1^(PHR WT) in pGADT7 (AD) (domain or fragment, Arabidopsis thaliana, UniProt Q43125 1-508, looked up)
chain: MSGSVSGCGSGGCSIVWFRRDLRVEDNPALAAAVRAGPVIALFVWAPEEEGHYHPGRVSRWWLKNSLAQLDSSLRSLGTCLITKRSTDSVASLLDVVKSTGASQIFFNHLYDPLSLVRDHRAKDVLTAQGIAVRSFNADLLYEPWEVTDELGRPFSMFAAFWERCLSMPYDPESPLLPPKKIISGDVSKCVADPLVFEDDSEKGSNALLARAWSPGWSNGDKALTTFINGPLLEYSKNRRKADSATTSFLSPHLHFGEVSVRKVFHLVRIKQVAWANEGNEAGEESVNLFLKSIGLREYSRYISFNHPYSHERPLLGHLKFFPWAVDENYFKAWRQGRTGYPLVDAGMRELWATGWLHDRIRVVVSSFFVKVLQLPWRWGMKYFWDTLLDADLESDALGWQYITGTLPDSREFDRIDNPQFEGYKFDPNGEYVRRWLPELSRLPTDWIHHPWNAPESVLQAAGIELGSNYPLPIVGLDEAKARLHEALSQMWQLEAASRAAIENGSEE
notes: cryptochrome 1 (AtCRY1), Arabidopsis thaliana, PHR domain, residues 1-508; also called CRY1 PHR domain; source: yeast two-hybrid fusion (yeast Y187)

- increase of Miller units relative to WT (HsFA3^WT in pGBKT7 (BD)): 27%
B2: CRY1^(PHR R211A) in pGADT7 (AD) (domain or fragment, Arabidopsis thaliana, UniProt Q43125 1-508, looked up)
chain: MSGSVSGCGSGGCSIVWFRRDLRVEDNPALAAAVRAGPVIALFVWAPEEEGHYHPGRVSRWWLKNSLAQLDSSLRSLGTCLITKRSTDSVASLLDVVKSTGASQIFFNHLYDPLSLVRDHRAKDVLTAQGIAVRSFNADLLYEPWEVTDELGRPFSMFAAFWERCLSMPYDPESPLLPPKKIISGDVSKCVADPLVFEDDSEKGSNALLAAAWSPGWSNGDKALTTFINGPLLEYSKNRRKADSATTSFLSPHLHFGEVSVRKVFHLVRIKQVAWANEGNEAGEESVNLFLKSIGLREYSRYISFNHPYSHERPLLGHLKFFPWAVDENYFKAWRQGRTGYPLVDAGMRELWATGWLHDRIRVVVSSFFVKVLQLPWRWGMKYFWDTLLDADLESDALGWQYITGTLPDSREFDRIDNPQFEGYKFDPNGEYVRRWLPELSRLPTDWIHHPWNAPESVLQAAGIELGSNYPLPIVGLDEAKARLHEALSQMWQLEAASRAAIENGSEE
notes: cryptochrome 1 (AtCRY1), Arabidopsis thaliana, PHR domain, residues 1-508; also called CRY1^R211A; source: yeast two-hybrid fusion (yeast Y187)

- decrease of Y2H interaction relative to WT (HsFA3^WT in pGBKT7 (BD)): 41%
B3: CRY1^(PHR R335A) in pGADT7 (AD) (domain or fragment, Arabidopsis thaliana, UniProt Q43125 1-508, looked up)
chain: MSGSVSGCGSGGCSIVWFRRDLRVEDNPALAAAVRAGPVIALFVWAPEEEGHYHPGRVSRWWLKNSLAQLDSSLRSLGTCLITKRSTDSVASLLDVVKSTGASQIFFNHLYDPLSLVRDHRAKDVLTAQGIAVRSFNADLLYEPWEVTDELGRPFSMFAAFWERCLSMPYDPESPLLPPKKIISGDVSKCVADPLVFEDDSEKGSNALLARAWSPGWSNGDKALTTFINGPLLEYSKNRRKADSATTSFLSPHLHFGEVSVRKVFHLVRIKQVAWANEGNEAGEESVNLFLKSIGLREYSRYISFNHPYSHERPLLGHLKFFPWAVDENYFKAWAQGRTGYPLVDAGMRELWATGWLHDRIRVVVSSFFVKVLQLPWRWGMKYFWDTLLDADLESDALGWQYITGTLPDSREFDRIDNPQFEGYKFDPNGEYVRRWLPELSRLPTDWIHHPWNAPESVLQAAGIELGSNYPLPIVGLDEAKARLHEALSQMWQLEAASRAAIENGSEE
notes: cryptochrome 1 (AtCRY1), Arabidopsis thaliana, PHR domain, residues 1-508; source: yeast two-hybrid fusion (yeast Y187)

- decrease of Y2H interaction relative to WT (HsFA3^WT in pGBKT7 (BD)): 56%
B4: CRY1^(PHR K332A) in pGADT7 (AD) (domain or fragment, Arabidopsis thaliana, UniProt Q43125 1-508, looked up)
chain: MSGSVSGCGSGGCSIVWFRRDLRVEDNPALAAAVRAGPVIALFVWAPEEEGHYHPGRVSRWWLKNSLAQLDSSLRSLGTCLITKRSTDSVASLLDVVKSTGASQIFFNHLYDPLSLVRDHRAKDVLTAQGIAVRSFNADLLYEPWEVTDELGRPFSMFAAFWERCLSMPYDPESPLLPPKKIISGDVSKCVADPLVFEDDSEKGSNALLARAWSPGWSNGDKALTTFINGPLLEYSKNRRKADSATTSFLSPHLHFGEVSVRKVFHLVRIKQVAWANEGNEAGEESVNLFLKSIGLREYSRYISFNHPYSHERPLLGHLKFFPWAVDENYFAAWRQGRTGYPLVDAGMRELWATGWLHDRIRVVVSSFFVKVLQLPWRWGMKYFWDTLLDADLESDALGWQYITGTLPDSREFDRIDNPQFEGYKFDPNGEYVRRWLPELSRLPTDWIHHPWNAPESVLQAAGIELGSNYPLPIVGLDEAKARLHEALSQMWQLEAASRAAIENGSEE
notes: as for B3

- decrease of Y2H interaction relative to WT (HsFA3^WT in pGBKT7 (BD)): 51%
B5: CRY1^(PHR W352A) in pGADT7 (AD) (domain or fragment, Arabidopsis thaliana, UniProt Q43125 1-508, looked up)
chain: MSGSVSGCGSGGCSIVWFRRDLRVEDNPALAAAVRAGPVIALFVWAPEEEGHYHPGRVSRWWLKNSLAQLDSSLRSLGTCLITKRSTDSVASLLDVVKSTGASQIFFNHLYDPLSLVRDHRAKDVLTAQGIAVRSFNADLLYEPWEVTDELGRPFSMFAAFWERCLSMPYDPESPLLPPKKIISGDVSKCVADPLVFEDDSEKGSNALLARAWSPGWSNGDKALTTFINGPLLEYSKNRRKADSATTSFLSPHLHFGEVSVRKVFHLVRIKQVAWANEGNEAGEESVNLFLKSIGLREYSRYISFNHPYSHERPLLGHLKFFPWAVDENYFKAWRQGRTGYPLVDAGMRELAATGWLHDRIRVVVSSFFVKVLQLPWRWGMKYFWDTLLDADLESDALGWQYITGTLPDSREFDRIDNPQFEGYKFDPNGEYVRRWLPELSRLPTDWIHHPWNAPESVLQAAGIELGSNYPLPIVGLDEAKARLHEALSQMWQLEAASRAAIENGSEE
notes: cryptochrome 1 (AtCRY1), Arabidopsis thaliana, PHR domain, residues 1-508; also called CRY1^W352A; source: yeast two-hybrid fusion (yeast Y187)

- decrease of Y2H interaction relative to WT (HsFA3^WT in pGBKT7 (BD)): 12%
B6: CRY1^(PHR R435A) in pGADT7 (AD) (domain or fragment, Arabidopsis thaliana, UniProt Q43125 1-508, looked up)
chain: MSGSVSGCGSGGCSIVWFRRDLRVEDNPALAAAVRAGPVIALFVWAPEEEGHYHPGRVSRWWLKNSLAQLDSSLRSLGTCLITKRSTDSVASLLDVVKSTGASQIFFNHLYDPLSLVRDHRAKDVLTAQGIAVRSFNADLLYEPWEVTDELGRPFSMFAAFWERCLSMPYDPESPLLPPKKIISGDVSKCVADPLVFEDDSEKGSNALLARAWSPGWSNGDKALTTFINGPLLEYSKNRRKADSATTSFLSPHLHFGEVSVRKVFHLVRIKQVAWANEGNEAGEESVNLFLKSIGLREYSRYISFNHPYSHERPLLGHLKFFPWAVDENYFKAWRQGRTGYPLVDAGMRELWATGWLHDRIRVVVSSFFVKVLQLPWRWGMKYFWDTLLDADLESDALGWQYITGTLPDSREFDRIDNPQFEGYKFDPNGEYVRAWLPELSRLPTDWIHHPWNAPESVLQAAGIELGSNYPLPIVGLDEAKARLHEALSQMWQLEAASRAAIENGSEE
notes: cryptochrome 1 (AtCRY1), Arabidopsis thaliana, PHR domain, residues 1-508; also called CRY1^R435A; source: yeast two-hybrid fusion (yeast Y187)
